How the values were obtained:
[1] = target: Unhydroxylated collagen purified from strain PP434 (vector MMV411)
[2] = target: (Pro-Pro-Gly)10 peptide model substrate

B1: P4HA and P4HB with the His tag, expressed separately (bidirectional), encoded by plasmid MMV503 (protein)
chain 1: HPGFFTSIGQMTDLIHTEKDLVTSLKDYIKAEEDKLEQIKKWAEKLDRLTSTATKDPEGFVGHPVNAFKLMKRLNTEWSELENLVLKDMSDGFISNLTIQRQYFPNDEDQVGAAKALLRLQDTYNLDTDTISKGDLPGVKHKSFLTVEDCFELGKVAYTEADYYHTELWMEQALRQLDEGEVSTVDKVSVLDYLSYAVYQQGDLDKALLLTKKLLELDPEHQRANGNLKYFEYIMAKEKDANKSSSDDQSDQKTTLKKKGAAVDYLPERQKYEMLCRGEGIKMTPRRQKKLFCRYHDGNRNPKFILAPAKQEDEWDKPRIIRFHDIISDAEIEVVKDLAKPRLRRATISNPITGDLETVHYRISKSAWLSGYENPVVSRINMRIQDLTGLDVSTAEELQVANYGVGGQYEPHFDFARKDEPDAFKELGTGNRIATWLFYMSDVLAGGATVFPEVGASVWPKKGTAVFWYNLFASGEGDYSTRHAACPVLVGNKWVSNKWLHERGQEFRRPCTLSELE
chain 2: APDEEDHVLVLHKGNFDEALAAHKYLLVEFYAPWCGHCKALAPEYAKAAGKLKAEGSEIRLAKVDATEESDLAQQYGVRGYPTIKFFKNGDTASPKEYTAGREADDIVNWLKKRTGPAASTLSDGAAAEALVESSEVAVIGFFKDMESDSAKQFFLAAEVIDDIPFGITSNSDVFSKYQLDKDGVVLFKKFDEGRNNFEGEVTKEKLLDFIKHNQLPLVIEFTEQTAPKIFGGEIKTHILLFLPKSVSDYEGKLSNFKKAAESFKGKILFIFIDSDHTDNQRILEFFGLKKEECPAVRLITLEEEMTKYKPESDELTAEKITEFCHRFLEGKIKPHLMSQELPDDWDKQPVKVLVGKNFEEVAFDEKKNVFVEFYAPWCGHCKQLAPIWDKLGETYKDHENIVIAKMDSTANEVEAVKVHSFPTLKFFPASADRTVIDYNGERTLDGFKKFLESGGQDGAGDDDDLEDLEEAEEPDLEEDDDQKAVKDELHHHHHH
With B1 the “% Hydroxyproline (in vitro hydroxylation, 32 C, 1 hour); enzyme from strain PP636” value [1] was 0.9% and the “alpha-ketoglutaric acid consumption over time” value [2] was “The P4HA and P4HB enzymatic activity from PP548 were confirmed by the same assay as above”.
